Two molecules from patent US20090022728A1 (RINAT NEUROSCIENCE, published 2009) can be followed below.

For experiment [1], the target named is T1, N-biotinylated Aβ1-43 peptide (N-biotinylated).
T1 construct: captured on SA chip
In words: SPR, Fab over N-biotinylated peptide on SA chip. The method, then:
(§1) Affinities of 7G10 antibody were determined using BIAcore3000® as described previously in Example 1. N-biotinylated Aβ1-40, 1-42, and 1-43 were captured on SA chip. Threefold dilution series of anti-Aβ1-40 Fabs, anti-Aβ1-42 Fabs, and anti-Aβ1-43 Fabs respectively, were injected starting with a ⅙ dilution of the 7G10 stock listed above. The chip was regenerated with an 18 sec pulse of 6% EtOH+6 mM NaOH.

Experiment [2] concerns the target T2, biotinylated Aβ1-40 peptide (biotinylated (N-biotinylated in Example 7)).
T2 construct: captured on streptavidin (SA) chip; also called Biotinylated Aβ peptide 1-40; Aβ1-40 on SA chip
The experiment can be described thus: SPR, Fab over N-biotinylated peptide on SA chip. The method, then:
as §1

Experiment [3] deals with T3, biotinylated Aβ1-42 peptide (biotinylated (N-biotinylated in Example 7)).
T3 construct: captured on streptavidin chip; also called N-biotinylated Aβ1-42
In words: SPR, Fab over N-biotinylated peptide on SA chip. As to the method: as §1
A general note: SPR reads the build-up and loss of mass on a sensor chip optically.

Experiment [4] addresses T4, Aβ1-40 peptide.
T4 construct: synthetic peptide, not biotinylated; also called 1-40 (WT); beta amyloid 1-40
The experiment can be described thus: SPR, peptide flowed over 6G mAb on CM5 chip; the reference itself.

The target in experiment [5] is Aβ1-37 peptide. In words: SPR, peptide flowed over 6G mAb on CM5 chip.
Chain of Aβ1-37 peptide (peptide, as listed by the source): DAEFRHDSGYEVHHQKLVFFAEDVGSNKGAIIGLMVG
Experiment [6] concerns the target T5, Aβ28-42 peptide.
T5 peptide: KGAIIGLMVGGVVIA
In words: SPR, peptide flowed over 6G mAb on CM5 chip.

Experiment [7] has as its target T4, Aβ1-40 peptide. The experiment can be described thus: SPR, peptide flowed over 6G mAb on CM5 chip.
Experiment [8] concerns the target Aβ1-39 peptide. In words: SPR, peptide flowed over 6G mAb on CM5 chip.
In experiment [9] the target is Aβ1-28 peptide. The experiment can be described thus: SPR, peptide flowed over 6G mAb on CM5 chip.
Chain of Aβ1-28 peptide (peptide, as listed by the source): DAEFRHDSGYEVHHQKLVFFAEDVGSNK
The target in experiment [10] is T6, Aβ28-40 peptide.
T6 peptide: KGAIIGLMVGGVV
The experiment can be described thus: SPR, peptide flowed over 6G mAb on CM5 chip.

Experiment [11] addresses T7, Aβ1-43 peptide.
T7 construct: also called 1-43 (WT)
In words: SPR, peptide flowed over 6G mAb on CM5 chip.

Experiment [12] has as its target T8, Aβ22-35 peptide.
T8 peptide: EDVGSNKGAIIGLM
The experiment can be described thus: SPR, peptide flowed over 6G mAb on CM5 chip.

For experiment [13], the target named is T9, Aβ17-40 peptide.
T9 peptide: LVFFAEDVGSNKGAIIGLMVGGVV
In words: SPR, peptide flowed over 6G mAb on CM5 chip.

Experiment [14] concerns the target T10, Aβ1-42 peptide.
T10 construct: also called 1-42 (WT)
In words: SPR, peptide flowed over 6G mAb on CM5 chip.

Experiment [15] deals with Aβ1-38 peptide. The experiment can be described thus: SPR, peptide flowed over 6G mAb on CM5 chip.
Chain of Aβ1-38 peptide (peptide, as listed by the source): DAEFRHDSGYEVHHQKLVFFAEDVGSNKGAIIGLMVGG
Experiment [16] has as its target T11, Aβ17-42 peptide.
T11 peptide: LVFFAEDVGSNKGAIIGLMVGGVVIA
In words: SPR, peptide flowed over 6G mAb on CM5 chip.

The target of experiment [17] is Aβ1-36 peptide. The experiment can be described thus: SPR, peptide flowed over 6G mAb on CM5 chip.
Chain of Aβ1-36 peptide (peptide, as listed by the source): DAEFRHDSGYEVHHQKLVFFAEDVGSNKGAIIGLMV
Experiment [18] has as its target T12, Aβ28-40-NH2 peptide (carboxy-terminal amidated).
T12 peptide: KGAIIGLMVGGVV-NH2
The experiment can be described thus: SPR, peptide flowed over 6G mAb on CM5 chip.

Experiment [19] addresses Aβ1-37 peptide. The experiment can be described thus: SPR, peptide flowed over 6G mAb on CM5 chip; reference Aβ1-40.
Experiment [20] deals with T5, Aβ28-42 peptide. The description is as above.
In experiment [21] the target is Aβ1-39 peptide. Described as above.
Chain of Aβ1-39 peptide (peptide, as listed by the source): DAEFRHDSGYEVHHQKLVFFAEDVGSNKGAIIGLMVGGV
For experiment [22], the target named is T6, Aβ28-40 peptide. The description is as above.
For experiment [23], the target named is T8, Aβ22-35 peptide. The description is as above.
In experiment [24] the target is T9, Aβ17-40 peptide. The description is as above.
Experiment [25] addresses T10, Aβ1-42 peptide. Described as above.
Experiment [26] concerns the target Aβ1-38 peptide. Described as above.
The target of experiment [27] is T11, Aβ17-42 peptide. The experiment is described as above.
In experiment [28] the target is Aβ1-36 peptide. The description is as above.
For experiment [29], the target named is T12, Aβ28-40-NH2 peptide (carboxy-terminal …). Described as above.
Experiment [30] concerns the target T13, biotinylated Aβ 27-41 peptide with C-terminal glycine (also: biotinylated, site not given here).
T13 peptide: NKGAIIGLMVGGVVIG
In words: ELISA on biotinylated peptides on streptavidin plates. The method, then:
(§2) ELISA was used for measuring binding of antibody 6G and variants to biotinylated Aβ peptides. NUNC maxisorp plates were coated with 6 ug/ml of streptavidin (Pierce, 21122) in PBS pH 7.4 for more than 1 h at 4° C. Plates were blocked with 1% BSA in PBS buffer pH 7.4. After washing, biotinylated Aβ peptides in PBS pH 7.4 were incubated 1 hour at room temperature. Primary antibody (from cell supernatants, serum containing anti-Aβ antibody, or purified full antibody or Fabs at desired dilution) was incubated with the immobilized Aβ peptides for 1 h at room temperature. After washing, plates were incubated with secondary antibody, a HRP conjugated goat anti-human kappa chain antibody (MP Biomedicals, 55233) at 1:5000 dilution. After washing, bound secondary antibody was measured by adding TMB substrate (KPL, 50-76-02, 50-65-02). HRP reaction was stopped by adding 1M phosphoric acid and absorbance at 450 nm was measured.
(§3) Epitope mapping of antibody 6G was performed by ELISA assay. Biotinylated 15-mer or 10-mer of various Aβ peptides (these peptides have glycine added to the C-terminal end) were immobilized on streptavidin coated plates. Antibody 6G (from 2.5 ug/ml to 10 ug/ml) was incubated with the immobilized peptides and binding was measured as described above.

For experiment [31], the target named is T14, biotinylated Aβ 26-40 peptide with C-terminal glycine (also: biotinylated, site not given here).
T14 peptide: SNKGAIIGLMVGGVVG
Described as above. The method, then: as §2, §3

The target of experiment [32] is T15, biotinylated Aβ 24-33 peptide with C-terminal glycine (also: biotinylated, site not given here).
T15 peptide: VGSNKGAIIGG
The description is as above. As to the method:
as §2, §3

Experiment [33] concerns the target T16, biotinylated Aβ 26-35 peptide with C-terminal glycine (also: biotinylated, site not given here).
T16 peptide: SNKGAIIGLMG
The experiment is described as above. As to the method: as §2, §3

The target in experiment [34] is T17, biotinylated Aβ 19-33 peptide with C-terminal glycine (also: biotinylated, site not given here).
T17 peptide: FFAEDVGSNKGAIIGG
Described as above. As to the method: as §2, §3

In experiment [35] the target is T18, Aβ33-40 peptide.
T18 construct: also called C-terminal peptide (33-40) of Aβ1-40
T18 peptide: GLMVGGVV
The experiment can be described thus: ELISA on immobilized Aβ peptides. As to the method: (§4) To determine the epitope on Aβ peptide that is recognized by antibody 6G, ELISA binding analysis was used. Various Aβ peptides (Global Peptide Services, CO) was immobilized on a ELISA plate. The binding of 6G full antibody (at 20 nM) to the immobilized Aβ was determined by ELISA as described above. […] Thus, antibody 6G binds to the C-terminus of various truncated Aβ peptide, for example, 22-35, 1-38, 1-40, 1-42, and 1-43.

Experiment [36] concerns the target T19, Aβ1-16 peptide.
T19 peptide: DAEFRHDSGYEVHHQK
In words: ELISA on immobilized Aβ peptides. As to the method: as §4
On the technique in general: In an ELISA, binding on a coated surface is turned into a signal by an enzyme label.

Where no end group is shown, it is not given here.

T1 sequence (peptide, as listed by the source): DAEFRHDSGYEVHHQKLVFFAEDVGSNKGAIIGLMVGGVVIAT

B1: murine antibody 7G10 (Fab) (Fab, V domains shown)
VH: EVKLVESGGDLVKPGGSLKLSCAASGFTFSTYAMSWIRQTPEKRLEWVASIGNSSRTYYPDSVKGRFTISRDNAGSILYLQMSSLRSEDTAIYYCARGEDGNYAWFTYWGQGTQVTVS
VL: DIVLTQSPATLSVTPGDSVSLSCRASQSVKNNLHWYQQKSHESPRLLIKYTFQSMSGIPSRFSGSGSGTDFTLIINSVETEDFGMYFCQQSNRWPLTFGAGTKLEL
notes: Fab was injected in the Biacore assay; also called m7G10
The term Kd denotes the concentration at which binding is half-saturated. Take B1: the Kd in experiment [1] amounted to 41 nM; in [3] it was 37.6 nM. Besides, the binding result in experiment [2] was “no binding”.

B2: antibody 6G (full monoclonal antibody) (antibody, human IgG2, kappa, V domains shown)
VH: QVQLVQSGAEVKKPGASVKVSCKASGYTFTTYAIHWVRQAPGQGLEWMGFTSPYSGVSNYNQKFKGRVTMTRDTSTSTVYMELSSLRSEDTAVYYCARFDNYDRGYVRDYWGQGTLVTVSS
VL: DIVMTQSPDSLAVSLGERATINCRASESVDNDRISFLNWYQQKPGQPPKLLIYAATKQGTGVPDRFSGSGSGTDFTLTISSLQAEDVAVYYCQQSKEFPWSFGGGTKVEIKR
notes: human IgG2a constant region with A330P331 to S330S331; human kappa light chain; also called 6G full antibody; 6G monoclonal antibody
One may read the koff as the rate constant with which the complex falls apart. Low readings indicate slow dissociation, high ones fast dissociation. In the case of B2, the “koff Aβ peptide/koff Aβ1-40 (fold loss of affinity)” value in experiment [4] worked out at 1 fold; in [19], 113 fold; in [20] it was 25.5 fold; in [21], 60 fold; in experiment [22] it was 4.8 fold; in experiment [23], 216 fold. Also, the “koff Aβ peptide/koff Aβ1-40 (fold loss of affinity)” value in experiment [24] was 1.6 fold; in experiment [25], 14.4 fold; in experiment [26], 70.4 fold; in experiment [27], 352 fold; in [28], 155 fold; in experiment [29] it was 27.4 fold. Also, the koff was 0.0149 s⁻¹ in experiment [5]; 0.00337 s⁻¹ in experiment [6]; 0.000132 s⁻¹ in experiment [7]; 0.00792 s⁻¹ in experiment [8]; 0.00064 s⁻¹ in experiment [10]; 0.0285 s⁻¹ in [12]. Also, the koff in experiment [13] was 0.000215 s⁻¹; in [14], 0.0019 s⁻¹; in experiment [15], 0.0093 s⁻¹; in experiment [16], 0.0465 s⁻¹; in experiment [17] it was 0.0205 s⁻¹; in experiment [18] it was 0.00362 s⁻¹. Moreover, the binding result in experiment [9] is listed as “no binding”; in experiment [11], “binds”; in [30], “no binding (tested: 2.5 ug/ml to 10 ug/ml)”; in [31], “no binding (tested: 2.5 ug/ml to 10 ug/ml)”; in experiment [32], “no binding (tested: 2.5 ug/ml to 10 ug/ml)”; in experiment [33] it was “no binding (tested: 2.5 ug/ml to 10 ug/ml)”. Further, the binding result in experiment [34] was “no binding (tested: 2.5 ug/ml to 10 ug/ml)”; in experiment [35], “no binding (tested: 20 nM)”; in experiment [36], “no binding (tested: 20 nM)”.
